The text below walks through data of patent publication US20030229003, “Use of transcription factors for treating inflammation and other diseases” (published 2003).

In series [1] the target is T1, ESE-1 (ELF3) (Homo sapiens, UniProt P78545 P78545:1-371).
T1 sequence: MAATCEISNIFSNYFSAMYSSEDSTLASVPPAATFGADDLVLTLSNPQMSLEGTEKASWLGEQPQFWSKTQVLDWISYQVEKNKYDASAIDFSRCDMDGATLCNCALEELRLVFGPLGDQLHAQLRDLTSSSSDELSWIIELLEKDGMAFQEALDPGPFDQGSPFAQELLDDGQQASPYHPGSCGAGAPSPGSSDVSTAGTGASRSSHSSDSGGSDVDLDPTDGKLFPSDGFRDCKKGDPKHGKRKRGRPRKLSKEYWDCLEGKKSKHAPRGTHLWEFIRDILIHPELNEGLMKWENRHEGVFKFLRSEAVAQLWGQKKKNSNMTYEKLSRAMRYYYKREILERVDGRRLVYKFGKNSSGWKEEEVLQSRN
Nature of the series: cell_activity.

Series [2] has as its target T1, ESE-1 (ELF3). Put plainly: EMSA; strong specific complex; data not shown. Particulars: tags: pCI/ESE-1, TNT rabbit reticulocyte lysate; label: 32P. (In EMSA bound probe runs differently from free probe, usually more slowly.)
In series [3] the target is T1, ESE-1 (ELF3). Nature of the series: EMSA. Particulars: tags: pCI/ESE-1, TNT rabbit reticulocyte lysate; label: 32P. The method, then: Having identified putative targets for ESE- 1 we were also interested to determine whether ESE- 1 could specifically bind to Ets sites within the NOS2 promoter. An Ets binding site was identified which is highly homologous to the Ets consensus binding site for ESE- 1 (Oettgen, P., et al., 1999, J Biol Chem 274:29439-52). […] As is shown in FIG. 6, ESE- 1 binds equally well to both Ets sites.
In vitro transcription-translation was performed in TNT rabbit reticulocyte lysate (Promega) using the pCI/ESE- 1 vector as described (Oettgen, P., et al. et al. 1997, Mol Cell Biol 17:4419-33). EMSAs and supershift assays were performed using 2 μl of in vitro translation product or 3 μl of whole cell extract and (³²P)-labeled double stranded oligonucleotide probes in the presence or absence of competitor oligonucleotides (1, 10 or 100 ng) or antibodies as described (Akbarali, Y., et al. 1996. J Biol Chem 271:26007-12). Whole cell extracts were made from U- 138 Mg cells after incubation with IL-1β for 0, 3, and 8 hours using as lysis buffer 1% Triton X- 100, 25 mM glycylglycine pH7.8, 15 mM MgSO₄, 4 mM EGTA, 1 mM dithiothreitol, phenylmethylsulfonyl fluoride, Aprotinin, and Pepstatin. All antibodies for super-shift assays (2 μl per assay) were obtained from Santa-Cruz Technologies (CA) (Oettgen, P., et al. 1996, Mol Cell Biol 16:5091-106).

For COX-2 promoter -170/+103, the activity with ESE-1 (ELF3) [1] (luciferase, RAW 264.7) was above 10 fold.
NOS2 promoter -234/+31: the activity with ESE-1 (ELF3) [1] (luciferase transactivation, RAW cells, promoter length in Example 1M not stated) worked out at 12 fold.

B1: COX-2 promoter Ets site 1 (dsDNA)
DNA 1: GCACGTCCAGGAACTCCTCAGC
DNA 2: GCTGAGGAGTTCCTGGACGTGC
Take B1: the binding result with ESE-1 (ELF3) [2] was “binds”.

B2: murine PSP promoter Ets site (dsDNA)
DNA 1: TCGACGAACATCCAGGAAATAGGGCTC
DNA 2: TCGAGAGCCCTATTTCCTGGATGTTCG
Take B2: in the series with ESE-1 (ELF3) [3], the binding result is “binds”.

B3: COX-2 promoter Ets site 3 (dsDNA)
DNA 1: CGAAAAGGCGGAAAGAAACAGT
DNA 2: ACTGTTTCTTTCCGCCTTTTCG
On to B3, for which the binding result with ESE-1 (ELF3) [2] is “binds”.
